From patent publication US20200407467 come the findings set out here.

Data set [1] relates to T7-SEPARATE PreScission-cleavable clone, multivalent display (mid-copy vector).
Data set [2] relates to T7-SEPARATE PreScission-cleavable clone, monovalent display (T7Select1-2b).
For data set [3], the system named is uncleavable negative control clone (randomly selected 90-aa human peptide from the proteome library).
The test system of data set [4] is Fibrinogen (peptides of the human library).

Regarding “PreScission enzyme (human rhinovirus 3C protease, GE Life Sciences)”, in data set [1], the “phage particles recaptured, percent of pre-immobilized phage particles” value was “up to 24% and 22.5%, respectively”; the “phage particles released, percent of pre-immobilized phage particles” value is “up to 24% and 22.5%, respectively”; the signal-to-noise ratio (highest PreScission concentration versus mock digest) stood at 11.9. Also, in data set [2], the “phage particles recaptured, percent of pre-immobilized phage particles” value was “up to 53% and 43%, respectively”; the “phage particles released, percent of pre-immobilized phage particles” value is “up to 53%”; the “recapture of the cleavable peptide spiked 1 to 100 into the human library, fold increase versus mock digest” value is recorded as 26-fold increase; the signal-to-noise ratio (highest PreScission concentration versus mock digest) was 23.4. Further, the “phage particles recaptured, percent of immobilized phage particles” value in data set [3] is given as ~1% of the immobilized phage particles were similarly recaptured, whether the PreScission enzyme was included in the digest reaction or not.
On to Thrombin, for which, in data set [4], the “enrichment in SEPARATE (human library digest)” value is “did not score in the assay, and this was true for other canonical enzyme-substrate pairs such as Thrombin/Fibrinogen”.
